Source: a protein production outcome set (Wang et al. 2014)

Test: label from the status in PepcDB records
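Further: failed if final PepcDB status was selected cloned or expressed and not failed if soluble or beyond.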

Row | Sequence | protein production
1 | MAKKKIVAVIQARMGSSRLPGKVLMTVAGKPLLEHIIDRLRRSRTLDDIVIATSDKPCDDPLVDFAQTRGVTLVRGSEDNVLLRFNKAAEEVDADVIIRVTGDAPLVDPEVMDRLVRTLLQEGAEYCTIEAGINSIHEGFCTFTRGALKRLMTEAPDDPVAIEHVTAYFIAHPDKFHIARIPVGNEHRFKGARLSVDTPADVQFFDELYRLLGVPAGDADIADVVRLLRNNPHLLQINQHVYQKKATDRSHKVLIRCDGDSRTGLGHVVRCLALAGELREKQGCGIIFAMASGEPGMKMVRQADFPLERQEDADEGEWMDGLISRHHPDVLILDIRNDLPVEKVDSWREDGILVVGIDDPTPRRLAADLLFYPPIPQISELNWNNFNGEICSGWEWVLLRKQFCAPCPPRNNNPPALLLTMGGSDPANFTVRVLRVLDELQNDFETIVVIGAGFVHEEDLQQFLSQARRHYRIEREVSDMASLMRQADLAIASFGVTAYELAASGVPAVYLCLTPDHARSASKFVDDRLAFSCGVLEECSNERIIESTLSLLDSRELRHEVGRRACATVDGYGATRIATKIVEKLERMHSSHGLEHHHHHH | failed
2 | MAKKWQQRAALRRKRISFHRSTDTTSSSTAAEKGCFVVYTSDRIRFAFPISYLSNSVIQELLKISEEEFGIPTEGPITLPFDSVFLEYLIRLVQRRMDGDTEKALITSISSTRCSLPCSFQLQEHSSTRLVF | failed
3 | MAKLHIPVMVDEVVHCLSPQKGQIFLDMTFGSGGHTKAILQKESDIVLYALDRDPTAYALAEHLSELYPKQIRAMLGQFSQAEALLMKAGVQPGTFDGVLMDLGCSSMQLDTPERGFSLRKDGSLDMRMDGGRSTGTCIYPKNIRGGEACQENRFSNCSGTQHLPHHQNPAACQHRCRSISSLCYLYTERLTTAIYPYCHQDFPGSSHICEQ | failed
4 | MAKLHITTWGCQMNEYDSSKMADLLNSTHGLELTDKPEEADILLLNTCSIREKAQEKVFSQLGRWKNWKKDKPDLIIGVGGCVASQEGEHIRERAPFVDIVFGPQTLHRLPEMINQIRSGDRAVVDISFPEIEKFDRLPEPKAEGPTAFVSIMEGCNKYCSFCVVPYTRGEEVSRPVDDVLFEIAQLAEQGVREVNLLGQNVNAYRGETFDGGICTFAELLRLVAAIDGIDRLRYTTSHPIEFTDDIIEVYRDTPELVSFLHLPIQSGADRVLTMMKRNHTALEYKAIIRKLRAVRPNIQISSDFIVGFPGETAEDFEQTMKIIEQVNFDMSFSFIYSARPGTPASDLPDDVSENEKKDRLAHLQQRINHQAMQFSRLMLGTEQRILVEGPSKKDIMELTGRTETNRVVNFIGTPNMIGKFVDIKITDVYSNSLRGEVIRTEDQMGLRIVESASSVIARTRKEDDLGVGKYAVNLLEHHHHHH | failed
5 | MAKLVTENISKRFKNQDVLKHINITLENNEVYGLLGINGAGKTTLMKIICGILQQDSGEIKLDNRPMTRNDLHKVGSLIETPATYNHLSAQDNLKIVCLNESVDFSEINSVLSLVNLNVDKKKKVKDFSLGMKQRLGIAMALIKKPEILVLDEPSNGLDPYGIQELRELLKLLTEQGTSIIISSHILSEIQVLADHIGIIHEGELKYQQRNNKDENLEEIFFKITKGDYK | failed
6 | MAKPIRVLLYYKYVPIENAEQFAADHLAFCKSIGLKGRILVADEGINGTVSGEYETTQKYMDYVHSLPGMEDLWFKIDEEEEQAFKKMFVRYKKEIVHLGLEDNNFDSDINPLETTGAYLSPKEFKDALLDEDTVVLDTRNDYEYDLGHFRGAIRPDIRNFRELPQWVRDHKEEFMDKRVVVYCTGGVRCEKFSGWLVREGYKDVGQLHGGIVTYGKDPEVQGELWDGKLYVFDERIAVDVNHVDPIVVGKDWFDGTPCERYVNCGNPFCNRRILTSEENEDKYLRGCSHECRVHPRNRYVSENDLSQEEVVERLAAIGESLDVTPA | failed
7 | MAKPNIDELNQILTSYQNTINDTLQLFEQVPSPTQDKLYWNDVLQISDHLSKQATIVGMLWITGEPPKAEAMKETMEAYFNALQGFLLHCHGSMVGAGTTLSSTIHASVKQIVDSSFRLLQGSVSLYEGSYEKGRKPTIPQLAGAVWEACSNLKNVPETNIKAIGRAMAHVAVSMKDVLREMKELKPASSSPDHNVSTNSDDDDLGDELSPEEFEVAKMVADIVSETLVVIKELIRAITCMIKLENPKDNSEFVDSFEKLLKLCQGIGVQIDELGACVYPPQEFGLMKQTVENMRESIGEIESDVKSSKNSSSEALSGSCRRLQSLIEHMVTELDTRIEAEVVYKMQNVTL | failed
8 | MAKQATTSRLLPESMDNSGEFWLHAFESLVADLPEPAFVVDADGDITHWNQAVENILGLPASEAVGMNAYDVFGTEGQDETLAQEVIRTGEPVREDEFRSAERPDGTMAHARAVAIPLMGPGGDAIGALELLIDFSDIVEQREALQSLQSQMATDVESAVGEIGDSAAAVTEQSDDIKQMAGEQSENLDEVQSEVSGFSATVEEIASSAEEVSSQSGEARELAEESVETAEETIERVEDATESAEQVASDSTELRGHIEEIDEFVEVINDIADQTNMLALNANIEAARSNSDSDGFAVVADEIKELADESKQHADEVERIVGEVREMADSTAENVEETTDAIQQALTDIETVLDNQQAIVDATSETEQGIGEVAAATDDQAASAEEIASMIDEIAQRAAEVSESIDELADANETQHRLAQDLEENVERVERRLAEIME | failed
9 | MAKRTPSIDTKNLTAVQLMELDACVRCGECVKWCPTYAASGGKPGLAPRDKILRWRQYMNKSYGLKAKLFGPQEVSPSELEEFKDDVHGCTTCGVCATVCEAGINTVEIWEAIRTNLVKKGIGPYGKQSAFPKLVGQYHNPYMKDQKDRLAWVPPDVKIEDKADIVYFTGCTAGYNQLALAFATSRVLNKLGIKFAMLGEEEWCCGSALIRTGQVHVDDVARELARHNVEALQKKGAKKVLFACAGCFRAAKIDWPRLLGKELPFEVIHITQFLADLIQADKIKWEKPINKTITYHDPCHLGRHVGVFNAPRYVLSHIPGVKFVEMDRSKEFQRCCGAGGGVKAGMPDLAVAMGESRVKDALETNADILSSACPFCKRNLSDGRDALKSDIVVEDIIELVAEALGLSTS | failed
10 | MAKSMRCKRVKRLRAIRREIVEKESFTLTREDAKSAAIEAALAAPKLPVRQAPVSPFMEVATPSSESASASTTIANDSDEEMDDEKKNKSLKPIGKKLKKKFKLGMKNRRSKGVLRGKRN | failed
11 | MAKTDRSQPSVLARIAAFRTGLSAEASAADYLERQGYRILARRFKTRCGEIDLVAQRDALVAFVEVKARGNVDDAAYAVTPRQQSRIVAAAEAWLSRHPEHAMSELRFDAILIAPNTAPRHLPGAFDATP | not failed
12 | MAKTIYQPAPEAESNIREERSQRPNNRRRILLITVAASVILGLVAILFGGAILNPAATPESEPTMTATQIIPLVILVVMFVVATKWPLNIGVMGLVASFGVGYFMLGMTDKEILADFPANIVITIIGVTYFFSMAQRNGTVDIIVQTCVRLVRGKTLLLPWVFFLLAASLTALGTFSPAAVALLAPAAIGLAYESRIHPVLMGAFIINGAHAGGFSPLSVAGVLVHDIAVKNGFPISQGALFGASFALNLILSVLTVVLFALLGKLRDGATGQHADLDTTRTTRPHGQQILTLALIVAMLVCALGFHMPIGFVALSAGLLLALVNIKEHRTFIGGVSWSTVLLVAGMITYVSLLQHVGVIDTLAEQALALGAPLLIALVLCYVIGVGSAFASSTALLTAFIPLAGPLLATSSLSASGTVAALAIAATVVDVSPFSTDGALVVANAREDDRQRVYKQLMMYAGGVVLVAPALAWALLVPTGIM | failed
13 | MAKTLGLHILADLYGVDADKIDRVEDIRELLEGAVKYANLTKISSHYYQFQPHGATGVVLLAESHISIHTWPEHGLATVDVYTCGDPSKAYRAMDYIITQLNPKRIDKQVHERGIVEEESNQSEAEKLRSILLQV | not failed
14 | MALAGLLLGSALASSARAQSSDAAKPELEDALAVVDSLRRAGAFPAAQERLQSLREQHPERVPVLWRLVYTYADLGQSTDEENVRAQYYNNALNVAKAGLAADSTSARAHLAMAVAQGRAALDAGTRERIERSRAVKRHADRALAIDSTLDGAYHTRGRWHREVEDIGFVQRAIVKTVYGGLPESSIDQAVRDFRRALELRDRIFHHLELGKTYLQMDRPDAARRELRAVLDMPAEEPFDPRYKDEARRLLDDLD | failed
15 | MALCLNPDCGQPNNDDANSSCATCGSPLLLRDRYRVVKAIGQGGFGATYLGQDLQLPGEPLCVIKQLLPQVQDPEIMLMARELFRREAKTLGRIGSHPQVPTLLDYFEAPEGFYLVQEYIRGKTLEQEVREQGVYSETATKQFLSELLPLLQYLHNQGVIHRDIKPANLLRRDIDRRLVLIDFGAVKDQVSQIQGGSGLTALTSFSVGTRGYAPPEQLAMRPVYSSDLYSLGVTCLFLMTGKGPQDLDYNPVTGELLWRNSVQVSDALATVLGKMLAASVRYRYQRAEQVMTALDLQPYHDSLIQGLSALPPGAPPIKPSSGRTGSGYPSPQERQAEAIRARRRDRSGNRPEQLADAQQIAAWTGGTSNTSGNNSAGRLSLNARDILATYQRGRRDFSQQPLNRIDLSESQLPSVNFQGAQLKESLFVAAQLERADFGQANLHRANLRRANLHQAYFGNADLSFANLQKADLSDAILSNANLRGTNLCGANLRGAKLTPVQLKMAKTNWWTILPDGRRGRLF | failed
16 | MALDSPVGRRLGLVLQSRSNGVGPDQLFGDSELDHRAVCVIGEKGAERLAGPERGVVGRDSLCCVHTRPYGLWPLHWPRPAAATTLSRPAILTPRTATRTCMTEATGIVGEFLTLKEGTDADLLAMQCGDFYEFFAEDAEIVADELDLKVSQKSSHGSSYPMAGVPVDDLTPYVSALVERGYRVAIADQHETENGHAREITRVVTPGTHLETGDESAQYLAAVVREASRDSGDTYGIAATDVTTGQFQVTQLDDADAGEALTELYTFGPAEILPGPELRNDDEFLDRLRERTDAALTLHDSASFEPGRASHTVREQFGSETVDSVGIGDQNVAVRAAGAVLSYVEDTGVGTLAAVTRLQAYGERDHVDLDATTQRNLELTETMQGDSSGSLFDTIDHTVTAAGGRLLQQWLQRPRRNRAELQRRQSCVAALSEAAMARERIRETLSDAYDLERLAARATSGSADARDLRAVQETLALLGQVADAVTETERLAESPLADALDGADREAADSLAAELDSALVADPPGTVRQGGLFKRGHDDDLDEIIDEHEAALEWLETLPDREKERTGITHLSVDRNKTDGYYIQVGKSETDAVPEKYQHIKTLKNSKRYTTPELDEKERDVLRLEERRHDMEYEHFQRLRARVAEHATLLQDVGRTLAELDAFASLAVHAVENDWARPAVVDGNELSIEAGRHPVVEQTTEFVPNDLYMDDDRQFLIVTGPNMSGKSTYMRQAALITLLAQVGSFVPARSATVGLVDGIFTRVGALDELAQGRSTFMVEMQELSNILHSATEESLVILDEVGRGTATFDGISIAWAATEYIVNSIQSKTLFATHYHELTALGEELPTVENVHVAVDGEPRSAGSDGDVTFLRTVRDGPTDRSYGVHVADLAGVPEPVVDRSQAVLDRLRDDKAIEIRGSEQNDGGTTQAVFDLDSGQFRDGAAQSGGAAAGSTAEPVATDGDPEHAPGEAAAEGPKGDERAASLDSETEAVLSELTELDVNETPPVELMAKVQEWQAELDDE | failed
17 | MALGPEGAADLQRQLTEWTVFTAHCWQARSPQTEVLIATSGGTSEAWQQWLGAVEVQPQAEGDLGDRLHQAFQDSWQVGCDRTVIIGSDCPQIEPHHLDEAFAVLQQADVVIGPASDGGYWLIGLSQPQPQLFQNIDWGSDRVLVQTLEAAQVADLQVAQLESLSDLDRPEDLNLWQPQPQLSVIITTLNEAANLPQTLALIGDAPVETLVVDGGSQDATVAIAQAWGAKVIHSPAGRGRQFNQGAAAAHGNILLFLHGDTRLPPRFWEHVLQTLQPPQVVAGAFQLQIDSPDWRLRWIERGVRWRSHWLQQPYGDQALFLSRDRWRAIGGFSTGPLLEDYRFVRQLRRQGTIAIASAAVMTSARRWQRRGVLQTTLLNQLILLAHHCGVSDQQLARWYRLEHHHHHH | not failed
18 | MALKATIYKATVNVADLDRNQFLDASLTLARHPSETQERMMLRLLAWLKYADERLQFTRGLCADDEPEAWLRNDHLGIDLWIELGLPDERRIKKACTQAAEVALFTYNSRAAQIWWQQNQSKCVQFANLSVWYLDDEQLAKVSAFADRTMTLQATIQDGVIWLSDDKNNLEVNLTAWQQPS | not failed
